{"source": "patent US20150258194A1", "about": "“MODULATING TRANSENDOTHELIAL MIGRATION AND RECRUITMENT OF GRANULOCYTES BY MODULATING C-MET PATHWAY” (VIB VZW, priority 2012, published 2015)", "molecules": {"B1": {"name": "decoy MET: soluble HGF-trap consisting of the extracellular portion of MET (protein, UniProt P08581 25-932, looked up)", "extracellular domain": "ECKEALAKSEMNVNMKYQLPNFTAETPIQNVILHEHHIFLGATNYIYVLNEEDLQKVAEYKTGPVLEHPDCFPCQDCSSKANLSGGVWKDNINMALVVDTYYDDQLISCGSVNRGTCQRHVFPHNHTADIQSEVHCIFSPQIEEPSQCPDCVVSALGAKVLSSVKDRFINFFVGNTINSSYFPDHPLHSISVRRLKETKDGFMFLTDQSYIDVLPEFRDSYPIKYVHAFESNNFIYFLTVQRETLDAQTFHTRIIRFCSINSGLHSYMEMPLECILTEKRKKRSTKKEVFNILQAAYVSKPGAQLARQIGASLNDDILFGVFAQSKPDSAEPMDRSAMCAFPIKYVNDFFNKIVNKNNVRCLQHFYGPNHEHCFNRTLLRNSSGCEARRDEYRTEFTTALQRVDLFMGQFSEVLLTSISTFIKGDLTIANLGTSEGRFMQVVVSRSGPSTPHVNFLLDSHPVSPEVIVEHTLNQNGYTLVITGKKITKIPLNGLGCRHFQSCSQCLSAPPFVQCGWCHDKCVRSEECLSGTWTQQICLPAIYKVFPNSAPLEGGTRLTICGWDFGFRRNNKFDLKKTRVLLGNESCTLTLSESTMNTLKCTVGPAMNKHFNMSIIISNGHGTTQYSTFSYVDPVITSISPKYGPMAGGTLLTLTGNYLNSGNSRHISIGGKTCTLKSVSNSILECYTPAQTISTEFAVKLKIDLANRETSIFSYREDPIVYEIHPTKSFISGGSTITGVGKNLNSVSVPRMVINVHEAGRNFTVACQHRSNSEIICCTTPSLQQLNLQLPLKTKAFFMLDGILSKYFDLIYVHNPVFKPFEKPVMISMGNENVLEIKGNDIDPEAVKGEVLKVGNKSCENIHLHSEAVLCTVPNDLLKLNSELNIEWKQAISSTVLGKVIVQPDQNFT", "modifications": "extracellular domain"}}, "system": "neutrophils", "experiment": "Transmigration and migration assay of neutrophils", "format": "cell-based, mouse", "conditions": "TCM", "method": "Transmigration and Migration Assay: For the transmigration assay, 2×10^5 HUVEC were seeded on 3 μm polycarbonate membrane (Transwell; Costar) previously coated with 0.1% gelatin in M199 20% FBS. After 12 h, HUVEC were stimulated for 4 hours at 37° C. in DMEM 10% FBS with 5 ng/ml IL-1 and then washed. 5×105 WBC were seeded on top of the endothelial monolayer, while mock medium (+/− decoy Met), TCM (+/− decoy Met) or 50 ng/ml murine HGF was added in the bottom. After 2 hours at 37° C., transmigrated cells were collected from the lower chambers and from the bottom part of the filter with cold PBS 0.5% EDTA. Cells were stained and Ly6G+ cells quantified as above. In the migration assays WBC were seeded directly on top of 3 μm polycarbonate porous membranes.", "data": [{"molecule": "B1", "values": [{"measurement": "TCM-induced transendothelial migration of Met KO neutrophils", "setting": "Met KO neutrophils, decoy Met", "value": "did not further impair the migration of Met KO neutrophils"}, {"measurement": "TCM-promoted transendothelial migration of WT neutrophils", "setting": "WT neutrophils, decoy Met 0.5 ng/μl", "value": "abated this effect"}]}]}
